Measurements published in US20210170043A1, “DC-SIGN ANTIBODY CONJUGATES COMPRISING STING AGONISTS” (NOVARTIS AG, priority 2018, published 2021).

What was measured:
[1] = tested on: MC38 tumor cells; assay: Flow cytometry of tumors and spleens of MC38 tumor-bearing mice (PDL1, T cell infiltration); format: in vivo, mouse; settings: Tg+ mice
Experimental: Spleens and tumors were analyzed 24 hours post dose by flow cytometry for PDL1 expression.
The effect of DC-SIGN immunoconjugate on tumor T cell infiltration was also evaluated. […] Mice After the mice were sacrificed 7 days after dosing, tumors were analyzed for T cell infiltration and activation by flow cytometry.
Tumors and/or spleens were extracted at the timepoints indicated from animals. Spleens were processed into a single cell suspension using glass slides and passed through a 100 micron mesh filter. Spleens were lysed in 1 mL of ACK lysis buffer (Life Technologies) for 5 minutes at room temperature. After lysis, cells were pelleted and resuspended in complete RMPI medium (RPMI Media 1640 with 10 percent fetal bovine serum (FBS), 0.05 mM 2-mercaptoethanol, 1 percent Penicillin-Streptomycin-Glutamine, 1 percent non-essential amino acids, 1 percent HEPES, 1 percent sodium pyruvate (all media reagents from Thermo Fisher). Tumors were extracted and put into digestion media in gentleMACS C tubes. Digestion media consists of Dulbecco's Modified Eagle Medium with 0.04 U/mL Dispase (StemCell Technologies), 0.1 mg/mL Collagenase P (Sigma) and 0.1 mg/mL DNase (Sigma). Tumors were incubated with in digestion media and then processed using the gentleMACS Dissociator (Miltenyi Biotec Inc, San Diego, Calif.) to obtain a single cell suspension. After processing, cells were filtered in […] filters (Miltenyi Biotec Inc).
1-2 million cells for each sample were then stained with a cocktail of antibodies to determine impact of the treatments on dendritic cells, myeloid cells and T cells. For FACS analysis, cells were stained with a fixable, amine reactive dye to label dead cells (Zombie UV™ fixable viability kit, Biolegend) in PBS. For antibody staining, indicated antibodies (see table below) were diluted in PBS with 0.5% Bovine serum albumin (BSA, from Sigma). Samples were incubated at 4° C. for 30 minutes and then washed 2 times with PBS with 0.5% BSA. Cells were fixed with stabilizing fixative (BD). For intracellular analysis of FoxP3 to evaluate T regulatory cells, cells were fixed and permeabilized with the FoxP3 transcription factor kit according to manufacturer's recommendations (Thermo Fisher). Cells were then stained with FoxP3 clone FJK-16s (Thermo Fisher). After staining, cells were evaluated on the BD LSRFortessa™ cell analyzer (BD Biosciences, San Jose, Calif.).
T cells were identified as CD3+ MHCII− cells. CD8+ T cells and CD4+ T cells were further defined as CD8 and CD4 positive, respectively. Tregs were identified from CD4+ T cells as being FoxP3+.
Dendritic cells were identified as MHCII high CD11c high cells and further gated on expression of CD8 and CD11 b to identify CD8+DC subsets and CD11b+ DCs where noted. Monocytic myeloid derived suppressor cells were identified as CD45+ cells in tumors that express CD11b, MHCII, F4/80, Ly6C and are intermediate for Ly6G.

[2] = tested on: M2 macrophages; assay: Activation of human M2 macrophages (M2 moMacs) in vitro, flow cytometry; format: cell-based; settings: 24 hours incubation
Experimental: Primary human monocytes were isolated from a leukapheresis using magnetic bead selection and frozen for storage in liquid nitrogen. For monocyte DC (moDC) differentiation, cells were thawed and incubated in media containing GM-CSF and IL-4 for 7 days. For M2 macrophages (M2 moMacs), cells were thawed and incubated for 6 days with M-CSF containing media and then polarized with the addition of IL-4 for 24 hours. After the differentiation process for both moDC and moMacs, media was washed off and replaced with fresh media containing isotype control (DAPA version of Trastuzumab) C1, or DC-SIGN antibody C1 conjugates. Free T1-1 compound was used as a control. 24 hours after incubation with indicated compounds, cells were evaluated by flow cytometry for activation.
Peripheral blood Leukopaks from normal human donors were obtained from HemaCare. […]
Human CD14+ monocytes were isolated and frozen as described. […] Cells were counted and plated at 40,000-80,000 cells per well in a 384 well flat bottom tissue culture plate (Greiner). […]
24 hours after activation with compounds, cells were evaluated by flow cytometry according to the described protocol using antibody clones described in flow cytometry protocol section. DC-SIGN+CD11c+ HLA-DR+ cells were identified and assessed for CD86 expression and levels of DC-SIGN.

[3] = tested on: transgenic mice expressing human DC-SIGN gene (Tg+); assay: Splenic dendritic cell activation in human DC-SIGN transgenic mice, flow cytometry; format: in vivo, mouse; settings: 24 hours post dose
Experimental: Blood was collected at 6 hours post dose to analyze plasma cytokine and chemokine levels and spleens were analyzed at 24 hours post dose to look at dendritic cell activation.
(§1) Spleens were harvested 24 hours post dose and analyzed by flow cytometry to look at CD11c+ dendritic cells.
Tumors and/or spleens were extracted at the timepoints indicated from animals. Spleens were processed into a single cell suspension using glass slides and passed through a 100 micron mesh filter. Spleens were lysed in 1 mL of ACK lysis buffer (Life Technologies) for 5 minutes at room temperature. […]
1-2 million cells for each sample were then stained with a cocktail of antibodies to determine impact of the treatments on dendritic cells, myeloid cells and T cells. […] After staining, cells were evaluated on the BD LSRFortessa™ cell analyzer (BD Biosciences, San Jose, Calif.). […]

[4] = tested on: CD11c+ dendritic cells of Tg+ mice; assay: Dendritic cell activation in DC-SIGN Tg+ mice (spleen, flow cytometry); format: in vivo, mouse
Experimental: as §1

[5] = MC38, 1 mg/kg, 24 hours post dose

B1: 2B2 (DAPA) C1 (conjugate)
heavy: QVQLVQSGAEVKKPGASVKVSCKASGYTFTNYGINWVRQAPGQRLEWMGYIYIGNDYTEYNERFKGRVTITSDTSASTAYMELSSLRSEDTAVYYCARLYYGSSLYSYAMDYWGQGTTVTVSSASTKGPSVFPLAPSSKSTSGGTAALGCLVKDYFPCPVTVSWNSGALTSGVHTFPAVLQSSGLYSLSSVVTVPSSSLGTQTYICNVNHKPSNTKVDKRVEPKSCDKTHTCPPCPAPELLGGPSVFLFPPKPKDTLMISRTPEVTCVVVAVSHEDPEVKFNWYVDGVEVHNAKTKPREEQYNSTYRVVSVLTVLHQDWLNGKEYKCKVSNKALAAPIEKTISKAKGQPREPQVYTLPPSREEMTKNQVSLTCLVKGFYPCDIAVEWESNGQPENNYKTTPPVLDSDGSFFLYSKLTVDKSRWQQGNVFSCSVMHEALHNHYTQKSLSLSPGK
light: DIVMTQSPLSLPVTPGEPASISCRSSKSLLHSSGNTYLYWFLQKPGQSPQLLISRMSNLASGVPDRFSGSGSGTDFTLKISRVEAEDVGVYYCMQHLEYPYTFGGGTKVEIKRTVAAPSVFIFPPSDEQLKSGTASVVCLLNNFYPREAKVQWKVDNALQSGNSQESVTEQDSKDSTYSLSSTLTLSKADYEKHKVYACEVTHQGLSSPVTKSFNRGEC
- surface PDL1 on splenic CD11c high dendritic cells [1, 5]: significant upregulation of surface PDL1
- surface PDL1 on tumor resident dendritic cells and mMDSCs [1, 5]: significant upregulation of surface PDL1
- tumor CD3+ T cells ([1]; MC38, 1 mpk, 24 and 48 hours post dosing): increased CD3+ T cells
- T cell activation as measured by CD69 upregulation on tumor CD4 and CD8 T cells ([1]; MC38, 1 mpk, 24 hours post dose): Enhanced T cell activation
- tumor CD8+ T cells ([1]; MC38, 1 mpk, day 7 post dose): significant increase in CD8+ T cells
- tumor FoxP3+ T regulatory cells ([1]; MC38, 1 mpk, day 7 post dose): significant decrease in FoxP3+T regulatory cells
- tumor infiltration of CD8 T cells, combination with anti-PDL1 ([1]; MC38, conjugate plus anti-PDL1 clone 10F.9G2, 7 days after dosing): enhanced infiltration of CD8 T cells
- downregulation of DC-SIGN on macrophages [2]: induced downregulation of DC-SIGN
- macrophage activation as measured by CD86 upregulation [2]: induced monocyte dendritic cell and macrophage activation
- CD86 upregulation on splenic dendritic cells ([3]; 1 mg/kg i.v. (Fab2 1.33 mg/kg, Fab 1.3 mg/kg)): significantly upregulated
- CD80 upregulation on splenic dendritic cells ([3]; 1 mg/kg i.v.): significantly upregulated
- CD80 upregulation on dendritic cells (DC activation) [4]: significantly upregulated
- CD86 upregulation on dendritic cells (DC activation) [4]: significantly upregulated
